Results on one sequence are retold here after publication PMC10238501.

By pKd is commonly meant −log10 of the Kd, conventionally taken in molar units.

Test in all cases: fluorescence anisotropy
A general note: In fluorescence polarisation assays a small probe gives low polarisation when free and higher when bound to something large.

Data set [1] concerns the target Gal4LOV(SK22) C450V (/ Avena sativa (chimera)) (UniProt P04386). The note with it: dark; 20 mM HEPES pH 7.5, 50 mM NaCl, 50 ug/mL BSA, 5% Ficoll 400; 2 nM DNA; temperature not stated.
Data set [2] addresses Gal4LOV(SK22) (Gal4 DBD with AsLOV2 inserted between Ser22 and Lys23, no VP64) (/ Avena sativa (chimera)) (UniProt P04386). The following applies: 20 mM HEPES pH 7.5, 50 mM NaCl, 50 ug/mL BSA, 5% Ficoll 400, 2 nM DNA, temperature not stated.
Data set [3] concerns the target Gal4LOV(SK22) V416L (/ Avena sativa (chimera)) (UniProt P04386). The following applies: 20 mM HEPES pH 7.5, 50 mM NaCl, 50 ug/mL BSA, 5% Ficoll 400; 2 nM DNA; temperature not stated.
Data set [4] concerns the target Gal4LOV(SK22) I532E/A536E (/ Avena sativa (chimera)) (UniProt P04386). The note with it: dark; 20 mM HEPES pH 7.5, 50 mM NaCl, 50 ug/mL BSA, 5% Ficoll 400; 2 nM DNA; temperature not stated.

pKd: −log10 of the molar value. Several values for one entry are separate records, joined by “and”; a condition that tells them apart may be missing. Equal entries are not always repeated.

Turning to “TCTTCGGAGGGCTGTCACCCGAATATA (double strand) [1xUAS 27-bp DNA]”, the pKd in data set [1] was 8.06; in data set [2], 8.38; in data set [2] (dark) it was 8.19; in data set [3], 8.07 and 7.78; in data set [4], 7.87.
